Experimental data taken from patent US6747005.

Legend:
[1] = molecular target: Rch1 N-terminal fragment (residues 1-95), P52292
[2] = molecular target: recombinant Importin α Rch1, full-length, P52292
[3] = molecular target: ΔN-Rch1 lacking the Importin β binding site, P52292

B1: recombinant CBP HAT domain (amino acids 1098-1758) (protein)
chain: TLEALYRQDPESLPFRQPVDPQLLGIPDYFDIVKNPMDLSTIKRKLDTGQYQEPWQYVDDVWLMFNNAWLYNRKTSRVYKFCSKLAEVFEQEIDPVMQSLGYCCGRKYEFSPQTLCCYGKQLCTIPRDAAYYSYQNRYHFCEKCFTEIQGENVTLGDDPSQPQTTISKDQFEKKKNDTLDPEPFVDCKECGRKMHQICVLHYDIIWPSGFVCDNCLKKTGRPRKENKFSAKRLQTTRLGNHLEDRVNKFLRRQNHPEAGEVFVRVVASSDKTVEVKPGMKSRFVDSGEMSESFPYRTKALFAFEEIDGVDVCFFGMHVQNTALIAPHQIQGRVYISYLDSIHFFRPRCLRTAVYHEILIGYLEYVKKLGYVTGHIWACPPSEGDDYIFHCHPPDQKIPKPKRLQEWYKKMLDKAFAERIINDYKDIFKQANEDRLTSAKELPYFEGDFWPNVLEESIKELEQEEEERKKEESTAASETPEGSQGDSKNAKKKNNKKTNKNKSSISRANKKKPSMPNVSNDLSQKLYATMEKHKEVFFVIHLHAGPVISTQPPIVDPDPLLSCDLMDGRDAFLTLARDKHWEFSSLRRSKWSTLCMLVELHTQGQDRFVYTCNECKHHVETRWHCTVCEDYDLCINCYNTKSHTHKMVKWGLGLDDEGSSQG
acetylation (analysis as in the first experiment) (Importin α7): CBP was shown to acetylate Importin α family members, Rch1 and Importin α7 | acetylation ([14-C]-acetyl coA, SDS-PAGE, blot exposed to film) [1]: Only the full-length Rch1 and the N-terminal 1-95 fragment showed acetylation. | acetylation ([14-C]-acetyl coA, SDS-PAGE, blot exposed to film) [2]: Only the full-length Rch1 and the N-terminal 1-95 fragment showed acetylation. | acetylation (analysis as in the first experiment) [2]: CBP was shown to acetylate Importin α family members, Rch1 and Importin α7 | acetylation ([14-C]-acetyl coA, SDS-PAGE, blot exposed to film) [3]: Only the full-length Rch1 and the N-terminal 1-95 fragment showed acetylation. (ΔN-Rch1 showed none)
